Values quoted from earlier work, collected in patent publication US9421247B2, “Biodegradable nanoparticles as novel hemoglobin-based oxygen carriers and methods of using the same” (Vindico NanoBio Technology Inc., priority 2010, dated 2016).

## PolyHeme™: commercial acellular HBOC (Northfield Lab, Evanston, Ill., USA)
  adverse physiological effects on infusion/transfusion into animals: induce vasoconstriction

## free hemoglobin: cell-free hemoglobin infused into animals
  adverse physiological effects on infusion/transfusion into animals: significant vasoconstriction and kidney damage
